Source: IntAct's records for PubMed 16648636

B1: Monothiol glutaredoxin-3 (Saccharomyces cerevisiae), Q03835 (parent)
chain: MPVIEINDQEQFTYLTTTAAGDKLIVLYFHTSWAEPCKALKQVFEAISNEPSNSNVSFLSIDADENSEISELFEISAVPYFIIIHKGTILKELSGADPKEYVSLLEDCKNSVNSGSSQTHTMENANVNEGSHNDEDDDDEEEEEETEEQINARLTKLVNAAPVMLFMKGSPSEPKCGFSRQLVGILREHQVRFGFFDILRDESVRQNLKKFSEWPTFPQLYINGEFQGGLDIIKESLEEDPDFLQHALQS
partner: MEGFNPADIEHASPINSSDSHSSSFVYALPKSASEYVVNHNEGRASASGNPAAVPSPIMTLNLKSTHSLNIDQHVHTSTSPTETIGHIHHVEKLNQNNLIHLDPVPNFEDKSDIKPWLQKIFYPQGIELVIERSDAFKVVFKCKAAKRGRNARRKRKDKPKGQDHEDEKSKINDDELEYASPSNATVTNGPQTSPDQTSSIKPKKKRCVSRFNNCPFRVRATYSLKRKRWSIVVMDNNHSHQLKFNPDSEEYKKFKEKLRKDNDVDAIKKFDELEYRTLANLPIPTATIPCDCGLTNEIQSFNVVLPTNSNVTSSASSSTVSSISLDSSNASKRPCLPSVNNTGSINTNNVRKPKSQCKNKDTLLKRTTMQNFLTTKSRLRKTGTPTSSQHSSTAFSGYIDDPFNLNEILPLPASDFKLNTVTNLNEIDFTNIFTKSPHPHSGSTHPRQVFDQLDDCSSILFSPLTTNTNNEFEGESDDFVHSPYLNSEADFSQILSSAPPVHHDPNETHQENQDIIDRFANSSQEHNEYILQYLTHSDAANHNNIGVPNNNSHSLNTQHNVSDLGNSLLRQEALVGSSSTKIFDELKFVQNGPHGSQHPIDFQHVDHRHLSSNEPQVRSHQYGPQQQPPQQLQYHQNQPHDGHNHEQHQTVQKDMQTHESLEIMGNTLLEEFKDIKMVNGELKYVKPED
B2: Monothiol glutaredoxin-4 (Saccharomyces cerevisiae), P32642 (parent)
chain: MTVVEIKSQDQFTQLTTTNAANKLIVLYFKAQWADPCKTMSQVLEAVSEKVRQEDVRFLSIDADEHPEISDLFEIAAVPYFVFIQNGTIVKEISAADPKEFVKSLEILSNASASLANNAKGPKSTSDEESSGSSDDEEDETEEEINARLVKLVQAAPVMLFMKGSPSEPKCGFSRQLVGILREHQIRFGFFDILRDENVRQSLKKFSDWPTFPQLYINGEFQGGLDIIKESIEEDPEYFQHALQ
partner: B1 partner

Variants of: B1
Settings: with aft1_yeast AFT1, P22149
For MPVIEINDQEQFTYLTTTAAGDKLIVLYFHTSWAEPCKALKQVFEAISNEPSNSNVSFLSIDADENSEISELFEISAVPYFIIIHKGTILKELSGADPKEYVSLLEDCKNSVNSGSSQTHTMENANVNEGSHNDEDDDDEEEEEETEEQINARLTKLVNAAPVMLFMKGSPSEPKSGFSRQLVGILREHQVRFGFFDILRDESVRQNLKKFSEWPTFPQLYINGEFQGGLDIIKESLEEDPDFLQHALQS [C176S], the “effect of a mutation on the interaction” value was “disrupting interaction”.

Variants of: B2
Settings: with aft1_yeast AFT1, P22149
For MTVVEIKSQDQFTQLTTTNAANKLIVLYFKAQWADPCKTMSQVLEAVSEKVRQEDVRFLSIDADEHPEISDLFEIAAVPYFVFIQNGTIVKEISAADPKEFVKSLEILSNASASLANNAKGPKSTSDEESSGSSDDEEDETEEEINARLVKLVQAAPVMLFMKGSPSEPKSGFSRQLVGILREHQIRFGFFDILRDENVRQSLKKFSDWPTFPQLYINGEFQGGLDIIKESIEEDPEYFQHALQ [C171S], the “effect of a mutation on the interaction” value was “disrupting interaction”.
